Laboratory results as given in PMC4104028 (2014).

B1: FLAG-Atg16L1 full-length (FL) [mouse] / endogenous FIP200 (HEK293A) [human (endogenous in HEK293A)] (parent complex)
chain 1: MSSGLRAADFPRWKRHIAEELRRRDRLQRQAFEEIILQYTKLLEKSDLHSVLTQKLQAEKHDMPNRHEISPGHDGAWNDSQLQEMAQLRIKHQEELTELHKKRGELAQLVIDLNNQMQQKDKEIQMNEAKISEYLQTISDLETNCLDLRTKLQDLEVANQTLKDEYDALQITFTALEEKLRKTTEENQELVTRWMAEKAQEANRLNAENEKDSRRRQARLQKELAEAAKEPLPVEQDDDIEVIVDETSDHTEETSPVRAVSRAATKRLSQPAGGLLDSITNIFGLSESPLLGHHSSDAARRRSVSSIPVPQDIMDTHPASGKDVRVPTTASYVFDAHDGEVNAVQFSPGSRLLATGGMDRRVKLWEAFGDKCEFKGSLSGSNAGITSIEFDSAGAYLLAASNDFASRIWTVDDYRLRHTLTGHSGKVLSAKFLLDNARIVSGSHDRTLKLWDLRSKVCIKTVFAGSSCNDIVCTEQCVMSGHFDKKIRFWDIRSESVVREMELLGKITALDLNPERTELLSCSRDDLLKVIDLRTNAVKQTFSAPGFKCGSDWTRVVFSPDGSYVAAGSAEGSLYVWSVLTGKVEKVLSKQHSSSINAVAWAPSGLHVVSVDKGSRAVLWAQP
chain 2: MKLYVFLVNTGTTLTFDTELTVQTVADLKHAIQSKYKIAIQHQVLVVNGGECMAADRRVCTYSAGTDTNPIFLFNKEMILCDRPPAIPKTTFSTENDMEIKVEESLMMPAVFHTVASRTQLALEMYEVAKKLCSFCEGLVHDEHLQHQGWAAIMANLEDCSNSYQKLLFKFESIYSNYLQSIEDIKLKLTHLGTAVSVMAKIPLLECLTRHSYRECLGRLDSLPEHEDSEKAEMKRSTELVLSPDMPRTTNESLLTSFPKSVEHVSPDTADAESGKEIRESCQSTVHQQDETTIDTKDGDLPFFNVSLLDWINVQDRPNDVESLVRKCFDSMSRLDPRIIRPFIAECRQTIAKLDNQNMKAIKGLEDRLYALDQMIASCGRLVNEQKELAQGFLANQKRAENLKDASVLPDLCLSHANQLMIMLQNHRKLLDIKQKCTTAKQELANNLHVRLKWCCFVMLHADQDGEKLQALLRLVIELLERVKIVEALSTVPQMYCLAVVEVVRRKMFIKHYREWAGALVKDGKRLYEAEKSKRESFGKLFRKSFLRNRLFRGLDSWPPSFCTQKPRKFDCELPDISLKDLQFLQSFCPSEVQPFLRVPLLCDFEPLHQHVLALHNLVKAAQSLDEMSQTITDLLSEQKASVSQTSPQSASSPRMESTAGITTTTSPRTPPPLTVQDPLCPAVCPLEELSPDSIDAHTFDFETIPHPNIEQTIHQVSLDLDSLAESPESDFMSAVNEFVIEENLSSPNPISDPQSPEMMVESLYSSVINAIDSRRMQDTNVCGKEDFGDHTSLNVQLERCRVVAQDSHFSIQTIKEDLCHFRTFVQKEQCDFSNSLKCTAVEIRNIIEKVKCSLEITLKEKHQKELLSLKNEYEGKLDGLIKETEENENKIKKLKGELVCLEEVLQNKDNEFALVKHEKEAVICLQNEKDQKLLEMENIMHSQNCEIKELKQSREIVLEDLKKLHVENDEKLQLLRAELQSLEQSHLKELEDTLQVRHIQEFEKVMTDHRVSLEELKKENQQIINQIQESHAEIIQEKEKQLQELKLKVSDLSDTRCKLEVELALKEAETDEIKILLEESRAQQKETLKSLLEQETENLRTEISKLNQKIQDNNENYQVGLAELRTLMTIEKDQCISELISRHEEESNILKAELNKVTSLHNQAFEIEKNLKEQIIELQSKLDSELSALERQKDEKITQQEEKYEAIIQNLEKDRQKLVSSQEQDREQLIQKLNCEKDEAIQTALKEFKLEREVVEKELLEKVKHLENQIAKSPAIDSTRGDSSSLVAELQEKLQEEKAKFLEQLEEQEKRKNEEMQNVRTSLIAEQQTNFNTVLTREKMRKENIINDLSDKLKSTMQQQERDKDLIESLSEDRARLLEEKKKLEEEVSKLRSSSFVPSPYVATAPELYGACAPELPGESDRSAVETADEGRVDSAMETSMMSVQENIHMLSEEKQRIMLLERTLQLKEEENKRLNQRLMSQSMSSVSSRHSEKIAIRDFQVGDLVLIILDERHDNYVLFTVSPTLYFLHSESLPALDLKPGEGASGASRRPWVLGKVMEKEYCQAKKAQNRFKVPLGTKFYRVKAVSWNKKV
B2: FLAG-Atg16L1 full-length (FL) [mouse] / GFP-WIPI2b [not stated] (parent complex)
chain 1: B1 chain 1
chain 2: MNLASQSGEAGAGQLLFANFNQDNTSLAVGSKSGYKFFSLSSVDKLEQIYECTDTEDVCIVERLFSSSLVAIVSLKAPRKLKVCHFKKGTEICNYSYSNTILAVKLNRQRLIVCLEESLYIHNIRDMKVLHTIRETPPNPAGLCALSINNDNCYLAYPGSATIGEVQVFDTINLRAANMIPAHDSPLAALAFDASGTKLATASEKGTVIRVFSIPEGQKLFEFRRGVKRCVSICSLAFSMDGMFLSASSNTETVHIFKLETVKEKPPEEPTTWTGYFGKVLMASTSYLPSQVTEMFNQGRAFATVRLPFCGHKNICSLATIQKIPRLLVGAADGYLYMYNLDPQEGGECALMKQHRLDGSLETTNEILDSASHDCPLVTQTYGAAAGKGTYVPSSPTRLAYTDDLGAVGGACLEDEASALRLDEDSEHPPMILRTD
B3: GFP-WIPI2b [not stated] / FLAG-Atg16L1 full-length (FL) [mouse] (parent complex)
chain 1: B2 chain 2
chain 2: B1 chain 1
B4: GFP-WIPI2b [not stated] / FLAG-Atg16L1 full-length (FL) [mouse] (parent complex)
chain 1: B2 chain 2
chain 2: B1 chain 1

Variants of: B1
Assay: FLAG immunoprecipitation, immunoblot quantification; parent: 1; read off a plot

Variant | ratio to parent
chain 1 E208R | ~1.3
chain 1 E226R | ~2.1
chain 1 D239R | ~0.3
chain 1 D237R | ~0.45
chain 1 E235R | ~0.7
chain 1 D212R | ~1.2
chain 1 D238R | ~0.42
chain 1 E230R | ~2.9
chain 1 E241R | ~0.25

Variants of: B2
Assay: GFP-Trap co-immunoprecipitation from mixed lysates, immunoblot quantification; parent: 1; read off a plot

Variant | ratio to parent
chain 1 E230R | ~0.02
chain 1 D237R | ~1.7
chain 1 D212R | ~0.63
chain 1 E241R | ~1.1
chain 1 D238R | ~1.3
chain 1 D239R | ~0.8
chain 1 E208R | ~0.67
chain 1 E235R | ~1.2
chain 1 E226R | ~0.02

Variants of: B3
Assay: GFP-Trap co-immunoprecipitation from mixed lysates, immunoblot quantification; parent: 2.5; read off a plot

Variant | response
chain 2 E230R | ~0.62
chain 2 E226R | ~0.33
chain 2 E226R, chain 2 E230R | ~0.02

Variants of: B4
Assay: as above

Variant | response
chain 1 R108E | ~0.04
chain 1 R125E | ~1.6
chain 1 R108E, chain 1 R125E | ~0.03
